In PMC6299077 (Nature Communications, 2018):

Target: the molecule itself
Experiment: SEC; […] (~2.7–27 μM), […] (pH 4.4–5.6); […]

B1: tHN of BoNT/A1 (beltless translocation domain of botulinum neurotoxin A1, residues K547–K871) (domain or fragment)
chain: KYTMFHYLRAQEFEHGKSRIALTNSVNEALLNPSRVYTFFSSDYVKKVNKATEAAMFLGWVEQLVYDFTDETSEVSTTDKIADITIIIPYIGPALNIGNMLYKDDFVGALIFSGAVILLEFIPEIAIPVLGTFALVSYIANKVLTVQTIDNALSKRNEKWDEVYKYIVTNWLAKVNTQIDLIRKKMKEALENQAEATKAIINYQYNQYTEEEKNNINFNIDDLSSKLNESINKAMININKFLNQCSVSYLMNSMIPYGVKRLEDFDASLKDALLKYIYDNRGTLIGQVDRLKDKVNNTLSTDIPFQLSKYVDNQRLLSTFTEYIK
- binding result: binds
